T1: human MerTK endogenously expressed on cells (SK-MEL-5 cells; human macrophages) (human, UniProt Q12866 21-999)
T1 sequence: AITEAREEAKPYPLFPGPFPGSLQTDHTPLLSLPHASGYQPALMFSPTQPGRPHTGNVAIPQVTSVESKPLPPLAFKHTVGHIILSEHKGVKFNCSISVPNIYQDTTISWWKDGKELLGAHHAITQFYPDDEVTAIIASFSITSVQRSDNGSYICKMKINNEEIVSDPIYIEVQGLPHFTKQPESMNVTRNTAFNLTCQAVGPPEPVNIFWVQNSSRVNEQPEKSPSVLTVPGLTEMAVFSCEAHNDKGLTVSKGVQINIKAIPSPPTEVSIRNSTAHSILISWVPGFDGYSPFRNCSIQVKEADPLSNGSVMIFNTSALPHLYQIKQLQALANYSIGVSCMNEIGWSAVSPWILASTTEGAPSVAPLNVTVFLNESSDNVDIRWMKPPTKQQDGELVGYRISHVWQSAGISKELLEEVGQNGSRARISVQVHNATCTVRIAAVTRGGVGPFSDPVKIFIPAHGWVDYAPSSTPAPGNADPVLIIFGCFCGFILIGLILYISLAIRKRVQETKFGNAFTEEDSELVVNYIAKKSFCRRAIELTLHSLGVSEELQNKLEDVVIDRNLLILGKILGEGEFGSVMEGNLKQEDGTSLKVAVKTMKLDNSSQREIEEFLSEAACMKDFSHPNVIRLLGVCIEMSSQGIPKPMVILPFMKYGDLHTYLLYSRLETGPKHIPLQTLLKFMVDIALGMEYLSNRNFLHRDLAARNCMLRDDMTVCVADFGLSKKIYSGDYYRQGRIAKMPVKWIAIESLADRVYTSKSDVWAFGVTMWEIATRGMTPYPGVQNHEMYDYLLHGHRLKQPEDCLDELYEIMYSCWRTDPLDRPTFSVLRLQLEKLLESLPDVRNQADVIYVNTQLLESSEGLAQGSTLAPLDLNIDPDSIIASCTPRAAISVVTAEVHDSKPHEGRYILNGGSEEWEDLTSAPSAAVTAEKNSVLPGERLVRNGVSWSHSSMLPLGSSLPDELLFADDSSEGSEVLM

T2: Recombinant human MerTK human Fc Chimera protein (R&D systems, Cat #391-MR-100) (human, UniProt Q12866 26-499, limits assumed)
T2 construct: Bought; also called recombinant human MerTK protein; MerTK-Fc
T2 sequence: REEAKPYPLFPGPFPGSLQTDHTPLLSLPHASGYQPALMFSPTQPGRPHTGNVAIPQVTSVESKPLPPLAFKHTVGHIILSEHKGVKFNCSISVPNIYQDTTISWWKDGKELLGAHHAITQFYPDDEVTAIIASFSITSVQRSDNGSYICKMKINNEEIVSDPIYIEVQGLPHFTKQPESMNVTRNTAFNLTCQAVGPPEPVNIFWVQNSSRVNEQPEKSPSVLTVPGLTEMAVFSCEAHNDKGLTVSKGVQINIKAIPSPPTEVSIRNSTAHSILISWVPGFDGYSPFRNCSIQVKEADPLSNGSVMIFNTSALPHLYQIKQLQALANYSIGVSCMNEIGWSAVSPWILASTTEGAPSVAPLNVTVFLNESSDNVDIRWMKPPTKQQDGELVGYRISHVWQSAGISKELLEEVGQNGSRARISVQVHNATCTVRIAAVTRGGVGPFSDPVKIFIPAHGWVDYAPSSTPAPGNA


Key:
[1] = biological target: T1, human MerTK endogenously expressed on …; assay: cell-based or functional assay
[2] = biological target: T1, human MerTK endogenously expressed on …; assay: flow cytometry on SK-MEL-5 cells, Prism fit
Experimental: To determine whether recombinant anti-human MerTK antibodies of the present disclosure bind to human MerTK endogenously expressed on SK-MEL-5 cells and to CHO cells overexpressing mouse MerTK (CHO-muMerTK OE cells), the following experiments were performed. SK-MEL-5 cells and CHO-muMerTK OE cells were plated at 40,000 cells/well. Anti-MerTK antibodies were titrated to a final concentration range of between 66.6 nM to 4 pM and then added to the cells. After 30 min on ice, cells were washed and then stained with APC-conjugated mouse anti-human Kappa antibody (Southern Biotech Cat #9230-11, Birmingham, Ala.) and a viability die (Life Technologies) in the presence of Fc block solution on ice for 30 minutes, and then washed twice with cold FACS buffer (2% FBS in PBS). Cells were fixed with 4% paraformaldehyde in PBS. Stained cells were acquired on a BD FACS Canto II cytometer and the mean fluorescence intensity (MFI) was calculated with FlowJo software and K value was calculated with Prism software. […] A lower Kd value reflects higher binding of antibody to cells.

[3] = biological target: T2, Recombinant human MerTK human Fc …; assay: competition ELISA, His-Gas6 on captured MerTK-Fc
Experimental: Rabbit anti-human IgG polyclonal antibody (Jackson ImmunoResearch, Cat #309-005-008) was captured to a high-protein binding plate at 2 μg/ml 4° C. overnight. After washing with 0.05% Tween20 in PBS three times, 5% BSA in PBS was added for 1 hour. Recombinant human MerTK human Fc Chimera protein (R&D systems, Cat #391-MR-100) was added at 2 μg/ml for 1 hour and the plates were then washed. Anti-MerTK antibodies were titrated to final concentration range of between 66.6 nM to 4 pM and then 40 μl of serially diluted antibody and 40 μl of His tag-conjugated recombinant Gas6 protein (R&D systems, Cat #885-GSB-050) at 3 μg/ml or His tag-conjugated recombinant ProS protein (R&D systems, Cat #9489-PS-100) at 20 μg/ml. After a further incubation for 1 hour, plates were washed and incubated for 1 hour with HRP-conjugated anti-6×His tag antibody (Abcam, Cat #ab1187). Plates were then washed and an HRP substrate (TMB) was used to develop the plates. After sufficient color change was observed, the reaction was stopped by adding 50 μl 2N H₂SO₄ and the OD was measured using a spectrophotometer (BioTek).
From these experiments, IC50 values [nM] were determined using OD450 values obtained from the dose-response curves analyzed with Prism software. Table 14 and Table 15 show IC50 values determined for anti-MerTK antibody blocking of Gas6 ligand binding and ProS ligand binding to MerTK. […] Dashes indicate lack of significant blocking; “n.a.” indicates data not available.

Row | Binder | Gas6-mediated pAKT activity, average IC50, human M2c macrophages [1] | Kd [2] [nM] | IC50 [3] [nM]
1 | MTK-03 (antibody, human IgG1, V domains shown) VH: DVQLQESGPGLVKPSQSLSLTCSVTGYSITSGYYWNWIRQFPGNTLEWMGYMSFDGDNKFNPSLKNRISITRDTSKNQFFLRLNSVTTEDTATYYCARGGYNYGSTEANWGQGTLVTVSA VL: QIVLTQSPAIMSAFPGEKVTITCSASSSVNYMHWFQQKPGTSPKLWIYSTSNLASGVPARFSGSGSGTSYSLTISRMEAEDAATYYCQQRSSYPFTFGSGTKLEIK | 19 pM | 2.64 | 8.53
2 | MTK-07 (antibody, human IgG1, V domains shown) VH: DVQLQESGPGLVKPSQSLSLTCSVTGYSITSGYYWNWIRQFPGNTLEWMGYMSFDGDNKFNPSLKNRISITRDTSKNQFFLRLNSVTTEDTATYYCARGGYNYGSTEANWGQGTLVTVST VL: QIVLTQSPAIMSAFPGEKVTITCSASSSVTYMHWFQQKPGTSPKLWIFSTSNLASGVPARFSGSGSGTSYSLTISRMEAEDAATYYCQQRSSYPFTFGSGTKLEIK | 0.371 nM | 3.21 | 7.97
3 | MTK-12 (antibody, human IgG1, V domains shown) VH: QVQLQQSGPQLVRPGASVKISCKASGYSFTSHWMHWVKQRPGQGLEWIGMIDPSDGESRLNQKFKDKATLTVDKSSSTAYMQLSSPTFEDSAVYYCARGIYYYGITYAMDYWGQGTSVTVSS VL: QIVLTQSPAIMSASPGEKVTMTCSASSSVSYMYWYQQKPRSSPRLLIYDTSNLASGVPVRFSGSGSGTSYSLTISRMEAEDAATYYCQQWSSYPLTFGAGTKLELK | 1.28 nM | 0.009 | 26

The remaining lines, values ahead:

Row | Gas6-mediated pAKT activity, average IC50, human M2c macrophages [1] | Kd [2] [nM] | IC50 [3] [nM] | Binder
4 | 7.74 nM | 1.66 | 6.32 | MTK-16 (antibody, human IgG1, V domains shown) VH: LIQLVQSGPELKKPGETVKISCKASGYTFTNHGMNWVKQDPGKGLKWMGWINTYTGEPTYADDFKGRFVFSMETSASAAFLQINNLKNEDTATYFCARKGVTAARYFDYWGQGTTLTVSS VL: DIVMTQSPKFMSTSVGDRVSITCKASQNVRTAVAWYKKKPGQSPKALINLASNRHTGVPDRFTGSGSGTDFTLTISNVQSEDLADYFCLQHWNYPLTFGGGTKLEIK
5 | 1.3 nM | 0.38 | 4.22 | MTK-18 (antibody, human IgG1, V domains shown) VH: QIQLVQSGPELKKPGETVKISCKASGYTFTHYGMTWVKQAPGKGLKWMGWINTYTGEPTYADDFKGRFAFSLETSASTAYLQINNLKNEDTATYFCARGGGQLGLRPLDYWGQGTTLTVSS VL: DIQMTQTTSSLSASLGDRVTFSCRASQAISNYLNWYQQKPDGTVKLLIYYTSRLHSGVPSRFSGSGSGTDYSLTISNLEQEDIATYFCQQGNTLPWTFGGGTKLEIK
